Legend:
[1] = target: SARS-CoV-2 RBD (SARS-CoV-2, UniProt P0DTC2); experiment: ELISA
[2] = target: SARS-CoV RBD (SARS-CoV, UniProt P59594); experiment: ELISA

B1: C212 (antibody, V domains shown)
VH: QVQLVQSGAEVKKPGASVKVSCKASGYTVTGYYIHWVRQAPGQGLEWMGWISPNSGGTNYAQKFQGWVTMTRDMSITTAYMELSRLRSDDTAVYYCARERYFDLGGMDVWGQGTTVTVSS
VL: LTQPASVSGSPGQSITISCTGTSSDVGSYNLVSWYQQHPGKAPKLMIYEDSKRPSGVSNRFSGSKSGNTASLTISGLQAEDEADYYCCSYAGSSTRLFGGGTKLTVL
Q: Which results are given for B1?
A: EC50 [1]: > 1000 ng/mL; EC50 [2]: > 1000 ng/mL

B2: C106 (antibody, V domains shown)
VH: QLQLQESGPGLVKPSETLSLTCTVSGASVSSGSYYWSWIRQPPGKGLEWIGYIYYSGSTNYNPSLKSRVTISVDTSKNQFSLKLSSVTAADTAVYYCARERPGGTYSNTWYTPTDTNWFDTWGQGTLVTVSS
VL: SYELTQPPSVSVAPGKTARITCGGNNIGSKSVHWYQQKPGQAPVLVIYFDSDRPSGIPERFSGSNSGNTATLTISRVEAGDEADYYCQVWDSSRDHVVFGGGTKLTVL
Q: How did the EC50 [1] turn out when B2 was run?
A: 19 ng/mL

Q: What about the EC50 [2] of the same binder?
A: 107 ng/mL

B3: C101 (antibody, V domains shown)
VH: QVQLVESGGGLIQPGGSLRLSCAASGFIVSSNYMSWVRQAPGKGLEWVSVIYSGGSTFYTDSVKGRFTISRDNSKNTLYLQMNSLRAEDTAVYYCVRDYGDFYFDYWGQGTLVTVSS
VL: EIVLTQSPGTLSLSPGERATLSCRASQSVSSSYLAWYQQKPGQAPRLLIYGASSRATGIPDRFSGGGSETDFTLTISRLEPEDCAVYYCQQYGSSPRTFGQGTKVEIK
Q: Which results are given for B3?
A: EC50 [1]: 1.51 ng/mL; EC50 [2]: > 1000 ng/mL

B4: C119 (antibody, V domains shown)
VH: QVQLVQSGAEVKKPGASVKVSCKASGYTFTSYYMHWVRQAPGQGLEWMGIINPSGGSTSYAQKLQGRVTMTRDTSTSTVYMELSSLRSEDTAVYYCARANHETTMDTYYYYYYMDVWGKGTTVTVSS
VL: QSALTQPASVSGSPGQSITISCTGTSSDVGGYKYVSWYQRHPGKAPKLMIYDVSNRPSGVSNRFSGSKSGNTASLTISGLQAEDEADYYCSSYTSSSTSVVFGGGTQLTVL
Q: Which results are given for B4?
A: EC50 [1]: 3.57 ng/mL; EC50 [2]: > 1000 ng/mL

B5: C010 (antibody, V domains shown)
VH: EVQLVESGGGVVQPGRSLRLSCAASGFTFSSYAMHWVRQAPAKGLEWVAVILYDGSGKYYADSVKGRFTISRDNSKNTLYLQMNSLRAEDTAVYYCARDGIVDTALVTWFDYWGQGTLVTVSS
VL: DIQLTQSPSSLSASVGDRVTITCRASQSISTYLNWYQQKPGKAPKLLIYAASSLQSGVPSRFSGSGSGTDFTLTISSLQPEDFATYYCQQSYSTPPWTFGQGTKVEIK
Q: With B5 as the binder, how does the EC50 [1] read?
A: 5.44 ng/mL

Q: What about the EC50 [2] of the same binder?
A: > 1000 ng/mL

B6: C144 (antibody, V domains shown)
VH: EVQLVESGGGLIQPGGSLRLSCAASGFTVSNNYMSWVRQAPGKGLEWVSVIYSGGSTYYADSVKGRFTISRDKSKNTLYLQMNRLRAEDTAVYYCAREGEVEGYNDFWSGYSRDRYYFDYWGQGTLVTVSS
VL: QSALTQPASVSGSPGQSITISCTGTSSDVGGYNYVSWYQQHPGKAPKLMIYDVSNRPSGVSNRFSGSKSGNTASLTISGLQAEDEADYYCSSYTSSSTRVFGTGTKVTVL
Q: Which EC50 [1] does the source give for B6 here?
A: 3.24 ng/mL

Q: What about the EC50 [2] of the same binder?
A: > 1000 ng/mL

B7: C102 (antibody, V domains shown)
VH: QVQLVESGGGLIQPGGSLRLSCAASGFIVSSNYMSWVRQAPGKGLEWVSVIYSGGSTFYADSVKGRFTISRDNSKNTLYLQMNSLRAEDTAVYYCARDYGDYYFDYWGQGTLVTVSS
VL: not shown
Q: What does the source list for B7?
A: EC50 [1]: 4.54 ng/mL; EC50 [2]: > 1000 ng/mL

B8: C146 (antibody, V domains shown)
VH: EVQLVESGGGLVKPGGSLRLSCAASGLTFTAYRMNWVRQAPGKGLEWLSSISNTNGDIYYADSVKGRFTISRDNAKNSLYLQMNSLRADDTAVYYCARDVASNYAYFDLWGQGTLVTVSS
VL: QSALTQPASVSGSPGQSITISCTGTSSDIGVYNYISWSQQHPGKAPKVMIYDVTNRPSGVSNRFSGSKSGNTASLTISGLQAEDEADYYCSSYRGSSTPYVFGTGTKVTVL
Q: For B8, which EC50 [1] is on record?
A: > 1000 ng/mL

Q: What about the EC50 [2] of the same binder?
A: > 1000 ng/mL

B9: C149 (antibody, V domains shown)
VH: QVQLVESGGGVVQPGRSLRLSCAASGFTFSTYGMHWVRQAPGKGLEWVAVISYDGSNKYFADSVKGRFTISRDNSKNTLYLQMNSLRPEDTAVYYCAKVGMEYSSGWYGEEIDFWGQGTLVTVSS
VL: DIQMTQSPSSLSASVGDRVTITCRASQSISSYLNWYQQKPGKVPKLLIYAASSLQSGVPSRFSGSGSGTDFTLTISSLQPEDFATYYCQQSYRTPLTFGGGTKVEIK
Q: Which EC50 [1] does the source give for B9 here?
A: 1.79 ng/mL

B10: C112 (antibody, V domains shown)
VH: QVQLVESGGGVVQPGRSLRLSCAASGFTFSSHAMHWVRQAPGKGLEWVAVISYDGSNKYYADSVKGRFTISRDNSKNTLYLQMNSLRAEDTAVYYCAREDYYDSSGSFDYWGQGTLVTVSS
VL: QSALTQPASVSGSPGQSITISCTGTSSDVGGYNYVSWYQQHPGKAPKLMIYDVSNRPSGVSNRFSGSKSGNTASLTISGLQAEDEADYYCSSYTSSSTWVFGGGTKLTVL
Q: B10 was tested. Which EC50 [1] did it give?
A: 3.38 ng/mL

Q: And the EC50 [2]?
A: > 1000 ng/mL

B11: C153 (antibody, V domains shown)
VH: EVQLVESGGGLIQPGGSLRLSCAASGFTVSSNYMSWVRQAPGKGLEWVSVIYSGYSTYYVDSVKGRFTISRDNSKNTLYLQMNSLRAEDTAVYYCARVGGAHSGYDGSFDYWGQGTLVTVSS
VL: QSALTQPASVSGSPGQSITISCTGTSSDVGSYNLVSWYQQHPGKAPKLMIYEGSKRPSGVSNRFSGSKSGNTASLTISGLQAEDEADYYCCSYAGSSTWVFGGGTKLTVL
Q: Which results are given for B11?
A: EC50 [1]: 3.17 ng/mL; EC50 [2]: > 1000 ng/mL

B12: C163 (antibody, V domains shown)
VH: QVQLQQWGAGLLKPSETLSLTCAVSGGSLSGFYWTWIRQPPGKGLEWIGETNHFGSTDYKPSLKSRVTISVDMSRNQFSLKVTSVTAADTAVYYCARKPLLHSDLSPGAFDIWGQGTMVTVSS
VL: EIVLTQSPGTLSLSPGERATLSCRASQTVSANYLAWYQQKAGQAPRLLIYGASKRATGIPDRFSGSGSGTDFTLSISRLEPEDFAVYYCQQYVTTPRTFGGGTKVEI
Q: B12 was tested. Which EC50 [1] did it give?
A: 1.77 ng/mL

B13: C036 (antibody, V domains shown)
VH: QVQLQQWGAGLLKPSETLSRTCAVFGGSFTNYYWSWIRQSPGKGLEWIGEINDSGITNYNPSLKSRVTISVDTSKNQFSLSLRSVTAADTAVYYCARRRSFSRPSSIDYWGQGTLVTVSS
VL: not shown
Q: Which EC50 [1] does the source give for B13 here?
A: 64.1 ng/mL

B14: C162 (antibody, V domains shown)
VH: QVQLQQWGAGLLKPSETLSLTCAVSGGSLSGFYWTWIRQPPGKGLEWIGETNHFGSTDYKASLKSRVTISVGMSRNQFSLKVTSLTAADTAVYYCARKPLLYSDFSPGAFDVWGQGTMVTVSS
VL: EIVLTQSPGTLSLSPGERATLSCRASQTLTANYLAWYQQKPGQAPRLLIYGASKRAAGIPDRFSGSGSGTDFTLSITRLEPEDFAVYYCQQYHTTPRTFGGGTKVEI
Q: How did the EC50 [1] turn out when B14 was run?
A: 1.18 ng/mL

B15: C160 (antibody, V domains shown)
VH: QVQLVQSGAEVKKPGASVKVSCKASGYTFTSYGISWVRQAPGQGLEWMGWISAYNGNTNYAQKLQGRVTMTTDTSTSTAYMELRSLRSDDTAVYYCARVPASYGDDDYYYYYGMDVWGQGTTVTVSS
VL: SYELTQPPSVSVSPGQTARITCSGDALPKQYAYWYQQKPGQAPVLVIYKDSERPSGIPERFSGSSSGTTVTLTISGVQAEDEADYYCQSADSSGTLWVFGGGTKLTVL
Q: B15 was tested. Which EC50 [1] did it give?
A: 2.54 ng/mL

B16: C038 (antibody, V domains shown)
VH: VQLVESGGGVVQPGRSLRLSCAASGFTFNRIAMYWVRQAPGKGLEWVAVISFDGSYEYYAESVKGRFAISRDNSKNTLYLQMNSLRAEDTAVYYCAKSPMGYCTNGVCYPDSWGQGTLVTVSS
VL: NFMLTQPHSVSESPGKTVTISCTGSSGSIASNYVQWYQQRPGSAPTTVIYEDTQRPSGVPDRFSGSIDSSSNSASLTISGLKTEDEADYYCQSYDINSRWVFGGGTKLTVL
Q: For B16, which EC50 [1] is on record?
A: 4.69 ng/mL

B17: C135 (antibody, V domains shown)
VH: QVQLVESGGGVVQPGRSLRLSCAASGFTFSSYAMHWVRQAPGKGLEWVAVIPFDGRNKYYADSVTGRFTISRDNSKNTLYLQMNSLRAEDTAVYYCASSSGYLFHSDYWGQGTLVTVSS
VL: DIQMTQSPSTLSASVGDRVTITCRASQSISNWLAWFQQKPGKAPKLLIYEASSLESGVPSRFSGSGSGTEFTLTISSLQPDDFATYYCQQYNSYPWTFGQGTKVEIK
Q: B17 was tested. Which EC50 [2] did it give?
A: > 1000 ng/mL

B18: C037 (antibody, V domains shown)
VH: QLVQSGPEVKKPGTSVKVSCKASGFTFTSSAMQWVRQARGQRLEWIGWIVVGSGNTNYAQKFQERVTITRDMSTSTAYMELSSLRSEDTAVYYCAAPYCSGGSCNDAFDIWGQGTMVTVSS
VL: not shown
Q: With B18 as the binder, how does the EC50 [1] read?
A: 1.93 ng/mL

B19: C032 (antibody, V domains shown)
VH: EVQLVQSGAEVKKPGESLKISCKGSGYSFTSYWIGWVRQMPGKGLEWMGIIYPGDSDTRYSPSFQGQVTISADKSISTAYLQWSSLKASDTAMYYCARGVAVDWYFDLWGRGTLVTVSS
VL: QSVLTQPPSVSGAPGQRVTISCTGSSSNIGAGYDVHWYQQLPGTAPKLLIYGNSNRPSGVPDRFSGSKSGTSASLAITGLQAEDEADYYCQSYDSSLSALYVFGTGTKVTVL
Q: For B19, which EC50 [1] is on record?
A: 99.3 ng/mL

B20: C161 (antibody, V domains shown)
VH: QVQLQQWGAGLLKPSETLSLTCAVSGGSLSGFYWTWIRQPPGKGLEWIGETNHFGSTDYKPSLKSRVTISVDMSRNQFSLIMTSVTAADTAVYYCARKTLLFSDFSPGAFDIWGQGTMVTVSS
VL: EIVLTQSPGTLSLSPGERATLSCRASQTLTANYLAWYQQKPGQAPRLLIYGASKRATGIPDRFSGSGSGTDFTLSISRLEPEDFAVYYCQQYGTTPRTFGGGTKVEI
Q: With B20 as the binder, how does the EC50 [1] read?
A: 1.63 ng/mL

B21: C040 (antibody, V domains shown)
VH: not shown
VL: SYELTQPPSVSVAPGQTARITCGGNNIGSKSVHWYQQKPGQAPVLVVYDDSDRPSGIPERFSGSNSGNTATLTISRVEAGDEADYYCQVWDSSSDQGVFGGGTKLTVL
Q: With B21 as the binder, how does the EC50 [1] read?
A: 11.1 ng/mL

B22: C129 (antibody, V domains shown)
VH: QVQLVESGGGVVQPGRSLRLSCAASGFTFSSYGMNWVRQAPGKGLEWVAVISYDGSNTYYTDSVKGRFTISRDNSKNTLYLQMNSLRVDDTATYYCAKGPRFGWSYRGGSGFDIWGQGTMVTVSS
VL: DIQMTQSPSSLSASVGDRVTITCQASQDISNYLNWYQQKPGKAPKLLIYDASNLETGVPSRFSGSESGTDFTFTISSLQPEDIATYYCQQYDNLPITFGQGTRLEIK
Q: With B22 as the binder, how does the EC50 [1] read?
A: 1.16 ng/mL

B23: C152 (antibody, V domains shown)
VH: QVQLVQSGAEVKKPGASVKVSCKASGYTFTSYGISWVRQAPGQGLEWMGWISAYNGNTNYAQKLQGRVTMTTDTSTSTAYMELRSLRSDDTAVFYCARDRGGHDFWSGYGFYYYYGMDVWGQGTTVTVSS
VL: DIQMTQSPSSLSASVGDRVTITCRASQGISNYLAWYQQRPGKVPKLLIFAASTLQSGVPSRFSGSGSGTDFTLTISSLQPEDVATYYCQKYNSAPRTFGQGTKVEIK
Q: B23 was tested. Which EC50 [1] did it give?
A: 1.88 ng/mL

Source: patent US11634477 (dated 2023)
